In assay [1] the target is T1, propargylated ubiquitin (Ub-PA) (UniProt P0CG48 1-75, propargylamine coupled to the C-terminus of ubiquitin 1-75). The experiment in a line: crystal structure; covalent complex of ZUFSP^232-578 and Ub-PA (100 µM + 200 µM, 18 h, 4 °C, SEC); crystals from 0.2 M sodium malonate pH 5, 20% PEG 3350, 4 °C. The settings on record: both partners purified.
Assay [2] addresses T1, propargylated ubiquitin (Ub-PA). The experiment in a line: suicide probe reaction (covalent adduct, SDS-PAGE, Coomassie); DUB prediluted to 10 µM, combined 1:1 with 100 µM probe in 20 mM TRIS pH 7, 150 mM NaCl, 10 mM DTT; 16 h at 4 °C; shifted band on Coomassie-stained gel. The settings on record: both partners purified.

We go through 3 molecules from paper PMC5824887, “A family of unconventional deubiquitinases with modular chain specificity determinants” (Nature Communications, 2018).

B1: ZUFSP^232-578 (domain or fragment, human, UniProt Q96AP4 232-578, looked up)
chain: GDLQLAHQLQQEEDRKRRSEESRQEIEEFQKLQRQYGLDNSGGYKQQQLRNMEIEVNRGRMPPSEFHRRKADMMESLALGFDDGKTKTSGIIEALHRYYQNAATDVRRVWLSSVVDHFHSSLGDKGWGCGYRNFQMLLSSLLQNDAYNDCLKGMLIPCIPKIQSMIEDAWKEGFDPQGASQLNNRLQGTKAWIGACEVYILLTSLRVKCHIVDFHKSTGPLGTHPRLFEWILNYYSSEGEGSPKVVCTSKPPIYLQHQGHSRTVIGIEEKKNRTLCLLILDPGCPSREMQKLLKQDIEASSLKQLRKSMGNLKHKQYQILAVEGALSLEEKLARRQASQVFTAEKIP
notes: In the crystal the catalytic Cys-360 is covalently coupled to Ub-PA; also called the construct used for crystallization; source: E. coli Rosetta (DE3)pLysS, purified (HisTrap, tag removal with Senp1, SEC); not shown: His6, N-terminal, cleaved; Smt3, N-terminal, cleaved
As for B1, the binding result in assay [1] is “binds”.

B2: human ZUFSP, full length, bacterially expressed (enzyme, UniProt Q96AP4 1-578, looked up)
chain: MLSCNICGETVTSEPDMKAHLIVHMESEIICPFCKLSGVNYDEMCFHIETAHFEQNTLERNFERINTVQYGTSDNKKDNTLQCGMEVNSSILSGCASNHPKNSAQNLTKDSTLKHEGFYSENLTESRKFLKSREKQSSLTEIKGSVYETTYSPPECPFCGKIEEHSEDMETHVKTKHANLLDIPLEDCDQPLYDCPMCGLICTNYHILQEHVDLHLEENSFQQGMDRVQCSGDLQLAHQLQQEEDRKRRSEESRQEIEEFQKLQRQYGLDNSGGYKQQQLRNMEIEVNRGRMPPSEFHRRKADMMESLALGFDDGKTKTSGIIEALHRYYQNAATDVRRVWLSSVVDHFHSSLGDKGWGCGYRNFQMLLSSLLQNDAYNDCLKGMLIPCIPKIQSMIEDAWKEGFDPQGASQLNNRLQGTKAWIGACEVYILLTSLRVKCHIVDFHKSTGPLGTHPRLFEWILNYYSSEGEGSPKVVCTSKPPIYLQHQGHSRTVIGIEEKKNRTLCLLILDPGCPSREMQKLLKQDIEASSLKQLRKSMGNLKHKQYQILAVEGALSLEEKLARRQASQVFTAEKIP
notes: Zn-finger and UFSP domain protein (ZUFSP), human, cloned from HEK293 cDNA; also called ZUP1; C6orf113; source: E. coli Rosetta (DE3)pLysS, purified (HisTrap, tag removal with Senp1, SEC); not shown: His6, N-terminal, cleaved; Smt3, N-terminal, cleaved
Regarding B2, in assay [2], the binding result is recorded as “binds”.

B3: Mug105 from the fission yeast Schizosaccharomyces pombe (enzyme, S. pombe, UniProt O13979 1-244, looked up)
chain: MSKCLQQLKRQLQHFGIDGCSLADGDIDYFFTVTGIDRGWGCGWRNIQMLISWLQYTNPNWFKRNFSSGNYEINSLQSLLLSAWMKGIDAEGYAQLGDNLHGKWIGATEVYSLFTGLFVNVALVDFDFRSEASASNALFLYVKKHFESSNDTSNVSPCYLQFQGHSIIIIGFCSSLETLVVLDPDRYQSVQKKFVNIADFNHCYMRKKRSLKFSQFQLVHFKQNIFLNDFSSKLEVRSTRISDF
notes: Mug105, S. pombe, cloned from genomic DNA; consists only of the core catalytic domain; source: E. coli Rosetta (DE3)pLysS, purified (HisTrap, tag removal with Senp1, SEC); not shown: His6, N-terminal, cleaved; Smt3, N-terminal, cleaved
Consider B3, for which the binding result in assay [2] is reported as “binds”.
